Results reported in article doi:10.1101/2024.12.19.629503.

Biological target: di-nucleosome of X. laevis histone octamers on two Widom 601 sequences (unmodified) (X. laevis)
Assay: cryo-EM structure

“DNMT3A2/3B3 hetero-tetramer (from UniProt Q9UBC3-3 1-770) (complex)” gave a stoichiometry N (hetero-tetramers per di-nucleosome) of 2.
